Article PMC5575113 (2017)
Residue numbers refer to the chain shown, from its start.

B1: GroES^7I25D_(1,4,7) (other)
chain: MNIRPLHDRVIVKRKEVETKSAGGDVLTGSAAAKSTRGEVLAVGNGRILENGEVKPLDVKVGDIVIFNDGYGVKSEKIDNEEVLIMSESDILAIVEAMNIRPLHDRVIVKRKEVETKSAGGIVLTGSAAAKSTRGEVLAVGNGRILENGEVKPLDVKVGDIVIFNDGYGVKSEKIDNEEVLIMSESDILAIVEAMNIRPLHDRVIVKRKEVETKSAGGIVLTGSAAAKSTRGEVLAVGNGRILENGEVKPLDVKVGDIVIFNDGYGVKSEKIDNEEVLIMSESDILAIVEAMNIRPLHDRVIVKRKEVETKSAGGDVLTGSAAAKSTRGEVLAVGNGRILENGEVKPLDVKVGDIVIFNDGYGVKSEKIDNEEVLIMSESDILAIVEAMNIRPLHDRVIVKRKEVETKSAGGIVLTGSAAAKSTRGEVLAVGNGRILENGEVKPLDVKVGDIVIFNDGYGVKSEKIDNEEVLIMSESDILAIVEAMNIRPLHDRVIVKRKEVETKSAGGIVLTGSAAAKSTRGEVLAVGNGRILENGEVKPLDVKVGDIVIFNDGYGVKSEKIDNEEVLIMSESDILAIVEAMNIRPLHDRVIVKRKEVETKSAGGDVLTGSAAAKSTRGEVLAVGNGRILENGEVKPLDVKVGDIVIFNDGYGVKSEKIDNEEVLIMSESDILAIVEA
modifications: DyLight 650 NHS ester on amines (for MST)
B2: GroES^7I25A1,3 (other)
chain: B1 chain with D25A, I219A, D316I, D607I
modifications: DyLight 650 NHS ester on amines (for MST)
B3: GroES^7I25A1,2 (other)
chain: B1 chain with D25A, I122A, D316I, D607I
modifications: DyLight 650 NHS ester on amines (for MST)
B4: GroES^7I25D1,3 (other)
chain: B1 chain with I219D, D316I, D607I
modifications: DyLight 650 NHS ester on amines (for MST)
B5: GroES^7I25A_(1,4,7) (other)
chain: B1 chain with D25A, D316A, D607A
modifications: DyLight 650 NHS ester on amines (for MST)
B6: GroES^7I25D1,4 (other)
chain: B1 chain with D607I
modifications: DyLight 650 NHS ester on amines (for MST)
B7: GroES^7I25D1 (other)
chain: B1 chain with D316I, D607I
modifications: DyLight 650 NHS ester on amines (for MST)
B8: GroES^7 (other)
chain: B1 chain with D25I, D316I, D607I
modifications: DyLight 650 NHS ester on amines (for MST)
B9: GroES^7I25A1,4 (other)
chain: B1 chain with D25A, D316A, D607I
modifications: DyLight 650 NHS ester on amines (for MST)
B10: GroES^7I25A1 (other)
chain: B1 chain with D25A, D316I, D607I
modifications: DyLight 650 NHS ester on amines (for MST)
B11: GroES^7I25D1,2 (other)
chain: B1 chain with I122D, D316I, D607I
modifications: DyLight 650 NHS ester on amines (for MST)

Columns and labels:
GroEL = GroEL (E. coli, UniProt P0A6F5 1-548); experiment: MST
[1] = target: GroEL^SR (GroEL R452A/E461A/S463A/V464A) (E. coli, UniProt P0A6F5 1-548, R452A | E461A | S463A | V464A); experiment: MST

Binder | Kd (GroEL) [nM] | Kd [1] [nM]
B1 | 40 | 
B2 | 10 | 39.7
B3 | 8.97 | 35
B4 | 13.3 | 71.9
B5 | 77.2 | 
B6 | 9.58 | 73.1
B7 | 4.07 | 25.6
B8 | 3.05 | 4.54
B9 | 8.99 | 51.3
B10 | 4.6 | 
B11 | 9.24 | 38.7
